{"source": "patent US20170137467A1", "binders": {"B1": {"name": "BC2-NbR106S (VHH, not shown: small tags and cut ends)", "VHH": "QVQLVESGGGLVQPGGSLTLSCTASGFTLDHYDIGWFRQAPGKEREGVSCINNSDDDTYYADSVKGRFTIFMDNAKDTVYLQMNSLKPEDTAIYYCAEARGCKRGSYEYDFWGQGTQVTVSS"}, "B2": {"name": "BC2-NbR106E (VHH)", "VHH": "B1 VHH with S106E"}, "B3": {"name": "BC2 nanobody (VHH, not shown: small tags and cut ends)", "VHH": "B1 VHH with S106R"}}, "key": {"BC2T K4E (human)": {"biological_target": "T1, BC2T K4E (human)", "T1 sequence (peptide, N-terminal acetyl, C-terminal amide)": "PDREAAVSHWQQ", "test": "library pulldown, LC-MS of supernatant; ratio vs GFP-Nb control (0=captured, 1=not captured)"}, "BC2T R3S": {"biological_target": "T2, BC2T R3S", "T2 sequence (peptide, N-terminal acetyl; C-terminal amide)": "PDSKAAVSHWQQ", "test": "positional peptide library pulldown on immobilised Nb, LC-MS of supernatant; signal ratio to control GFP-Nb (1 = not captured, near 0 = captured)"}, "BC2T R3Q": {"biological_target": "T3, BC2T R3Q", "T3 sequence (peptide, N-terminal acetyl; C-terminal amide)": "PDQKAAVSHWQQ", "test": "positional peptide library pulldown on immobilised Nb, LC-MS of supernatant; signal ratio to control GFP-Nb (1 = not captured, near 0 = captured)"}, "[1]": {"biological_target": "mCherry tagged with the improved BC2T variations", "test": "capture on the BC2 nanotrap, SDS-PAGE and Coomassie, FIG. 19a"}, "BC2T Q11P": {"biological_target": "T4, BC2T Q11P", "T4 sequence (peptide, N-terminal acetyl; C-terminal amide)": "PDRKAAVSHWPQ", "test": "positional peptide library pulldown on immobilised Nb, LC-MS of supernatant; signal ratio to control GFP-Nb (1 = not captured, near 0 = captured)"}, "BC2T S8D": {"biological_target": "T5, BC2T S8D", "T5 sequence (peptide, N-terminal acetyl; C-terminal amide)": "PDRKAAVDHWQQ", "test": "positional peptide library pulldown on immobilised Nb, LC-MS of supernatant; signal ratio to control GFP-Nb (1 = not captured, near 0 = captured)"}, "BC2T S8K": {"biological_target": "T6, BC2T S8K", "T6 sequence (peptide, N-terminal acetyl; C-terminal amide)": "PDRKAAVKHWQQ", "test": "positional peptide library pulldown on immobilised Nb, LC-MS of supernatant; signal ratio to control GFP-Nb (1 = not captured, near 0 = captured)"}}, "note": "Numbering of substitutions follows the chain as printed.", "data": [{"binder": "B1", "values": [{"measurement": "ratio", "setting": "BC2T K4E (human)", "result": 0.9}]}, {"binder": "B2", "values": [{"measurement": "ratio", "setting": "BC2T R3S", "result": 0.8}, {"measurement": "ratio", "setting": "BC2T R3Q", "result": 0.8}]}, {"binder": "B3", "values": [{"measurement": "percent protein bound", "setting": "[1]", "result": "< 100", "unit": "%"}, {"measurement": "ratio", "setting": "BC2T Q11P", "result": 0.6}, {"measurement": "ratio", "setting": "BC2T S8D", "result": 0.8}, {"measurement": "ratio", "setting": "BC2T S8K", "result": 0.8}]}]}
